Changes are numbered by the printed parent chain. Names and notes keep the numbering of the source.

For experiment [1], the target named is T1, human CD36 (on HEK 293 or SCC25 cells) (human, UniProt P16671 2-472). Description: cell-based or functional assay.
For experiment [2], the target named is T1, human CD36 (on HEK 293 or SCC25 cells). As to the kind of experiment: cell-based or functional assay. This is another data set of the same source.
Experiment [3] shares this target. Description: FACS, HEK 293 cells transiently overexpressing CD36.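 Further: antibody binding to transfected cells detected by flow cytometry with a fluorescent anti-human secondary antibody, EC50 from a four-parameter sigmoidal fit of mean fluorescence intensity.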 A general note: A flow cytometer gives signals particle by particle.
The target of experiment [4] is T2, nonhuman primate CD36 (on HEK 293 cells) (cynomolgus monkey / rhesus macaque, UniProt P16671 2-472 (human entry)).
T2 construct: also called non-human primate CD36 (cynomolgus)
T2 sequence (P16671 other isoform, or with tags, fused parts or gaps limits assumed): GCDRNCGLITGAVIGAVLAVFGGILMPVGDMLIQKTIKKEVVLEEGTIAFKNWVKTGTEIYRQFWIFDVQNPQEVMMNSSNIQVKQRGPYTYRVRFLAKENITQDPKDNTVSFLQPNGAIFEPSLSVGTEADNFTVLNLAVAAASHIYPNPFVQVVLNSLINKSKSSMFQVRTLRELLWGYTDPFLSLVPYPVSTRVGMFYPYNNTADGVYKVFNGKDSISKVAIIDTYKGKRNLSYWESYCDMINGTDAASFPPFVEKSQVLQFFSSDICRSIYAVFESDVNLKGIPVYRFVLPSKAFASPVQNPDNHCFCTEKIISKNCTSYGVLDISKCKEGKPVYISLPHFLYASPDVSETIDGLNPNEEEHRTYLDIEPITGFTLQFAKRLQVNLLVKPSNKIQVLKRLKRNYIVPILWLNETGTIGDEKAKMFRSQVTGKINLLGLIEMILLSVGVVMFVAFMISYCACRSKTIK
The experiment is described as above.

Experiment [5] concerns the target T3, mouse CD36 (on HEK 293 cells) (mouse, UniProt Q08857 1-472).
T3 construct: also called Murine CD36
The description is as above.

For experiment [6], the target named is T4, purified biotin-tagged human CD36 (human, UniProt P16671 30-439, limits assumed, biotin tag, site not stated). Description: AlphaScreen competition; competitor 1G04 on acceptor beads.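 Further: streptavidin donor beads excited at 680 nm release singlet oxygen, and the light signal needs a nearby acceptor bead, with 30 min donor-bead incubation at 25 °C in the dark.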
T4 sequence (P16671 30-439 limits assumed): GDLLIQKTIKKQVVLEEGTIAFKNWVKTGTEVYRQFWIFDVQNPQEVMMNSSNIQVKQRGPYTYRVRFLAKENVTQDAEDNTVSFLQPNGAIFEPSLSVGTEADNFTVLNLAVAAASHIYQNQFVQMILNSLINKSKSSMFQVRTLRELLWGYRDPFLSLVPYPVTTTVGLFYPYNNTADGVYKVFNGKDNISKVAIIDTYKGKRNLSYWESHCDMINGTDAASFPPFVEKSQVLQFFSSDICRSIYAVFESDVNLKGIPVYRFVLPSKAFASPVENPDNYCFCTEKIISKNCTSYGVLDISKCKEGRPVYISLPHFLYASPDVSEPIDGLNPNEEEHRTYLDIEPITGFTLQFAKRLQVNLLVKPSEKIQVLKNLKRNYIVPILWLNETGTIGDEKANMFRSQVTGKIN
In experiment [7] the target is T4, purified biotin-tagged human CD36. As to the kind of experiment: AlphaScreen competition; competitor 11G04 on acceptor beads. For orientation: Bead proximity is the source of the signal in Alpha formats.
Procedure: This was done using the AlphaScreen® bead-based microplate assay. […] AlphaLISA® Streptavidin Donor Beads were then added and the mix incubated for 30 min at 25° C. in the dark. The donor bead contains a photosensitizer, which upon excitation by light at 680 nm, converts oxygen (O₂) into an excited form, singlet oxygen. Singlet oxygen molecules have a reduced lifetime (4 microseconds half-life) and can diffuse approximately 200 nm in solution before falling back to ground state. In the absence of acceptor beads, the singlet oxygen molecules fall back to ground state without producing any light signal.
Experiment [8] concerns the target T1, human CD36 (on HEK 293 or SCC25 cells). As to the kind of experiment: cell-based or functional assay. The source holds these as a separate data set.
Experiment [9] has the same target. Description: FACS, SCC25 cells stably overexpressing human CD36.
Procedure: After transiently transfecting the HEK 293 cells with a CD36 expression construct, cells were treated with three-fold serial dilution of each candidate antibody (10 dilutions starting at 500 nM). […] After incubation with the cells, an anti-human fluorescently labelled antibody was added to the cell media, allowed to incubate further, and the unbound antibody was washed off of the cells. Subsequently, the cells were subjected to FACS analysis to determine antibody binding to the cells. The results were fitted to a sigmoidal titration curve. Using a nonlinear regression model, the EC₅₀ values for each antibody were calculated from the GeoMFI and MFI values using the log(agonist) versus response (four parameters) fitting on the data transformed according to X=Log[X] in GraphPad PRISM.
The target is the same in experiment [10]. Description: FACS, HEK 293 cells transiently overexpressing human CD36.
Procedure: After incubation with the cells, an anti-human fluorescently labelled antibody was added to the cell media, allowed to incubate further, and the unbound antibody was washed off of the cells. Subsequently, the cells were subjected to FACS analysis to determine antibody binding to the cells. The results were fitted to a sigmoidal titration curve. Using a nonlinear regression model, the EC₅₀ values for each antibody were calculated from the GeoMFI and MFI values using the log(agonist) versus response (four parameters) fitting on the data transformed according to X=Log[X] in GraphPad PRISM.
After transiently transfecting the HEK 293 cells with a CD36 expression construct, cells were treated with three-fold serial dilution of each candidate antibody (10 dilutions starting at 500 nM). […] Antibody binding to cells was measured by FACS as above.
In a further experiment the target is T5, human CD36 (His-tagged) (human, UniProt P16671 30-439).
T5 construct: not shown: His tag
T5 sequence (P16671 30-439 limits assumed): as above
As to the kind of experiment: SPR (Biacore T200), His-captured CD36, bivalent analyte model. Background: SPR reads the build-up and loss of mass on a sensor chip optically.

T1 sequence (P16671 2-472 limits assumed): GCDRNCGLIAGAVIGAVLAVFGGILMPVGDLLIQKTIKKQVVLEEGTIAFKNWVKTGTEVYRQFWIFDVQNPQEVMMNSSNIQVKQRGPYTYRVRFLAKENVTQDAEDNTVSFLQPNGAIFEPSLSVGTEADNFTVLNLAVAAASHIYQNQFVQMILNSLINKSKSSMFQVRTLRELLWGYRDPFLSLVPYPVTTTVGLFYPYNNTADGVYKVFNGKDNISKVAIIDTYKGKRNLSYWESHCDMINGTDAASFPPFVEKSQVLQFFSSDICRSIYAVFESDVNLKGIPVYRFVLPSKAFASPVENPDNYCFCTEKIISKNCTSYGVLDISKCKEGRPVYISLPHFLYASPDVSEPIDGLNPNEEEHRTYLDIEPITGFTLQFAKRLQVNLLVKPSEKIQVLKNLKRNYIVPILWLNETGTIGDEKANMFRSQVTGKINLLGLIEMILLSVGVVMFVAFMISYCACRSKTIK
T3 sequence (Q08857 whole entry): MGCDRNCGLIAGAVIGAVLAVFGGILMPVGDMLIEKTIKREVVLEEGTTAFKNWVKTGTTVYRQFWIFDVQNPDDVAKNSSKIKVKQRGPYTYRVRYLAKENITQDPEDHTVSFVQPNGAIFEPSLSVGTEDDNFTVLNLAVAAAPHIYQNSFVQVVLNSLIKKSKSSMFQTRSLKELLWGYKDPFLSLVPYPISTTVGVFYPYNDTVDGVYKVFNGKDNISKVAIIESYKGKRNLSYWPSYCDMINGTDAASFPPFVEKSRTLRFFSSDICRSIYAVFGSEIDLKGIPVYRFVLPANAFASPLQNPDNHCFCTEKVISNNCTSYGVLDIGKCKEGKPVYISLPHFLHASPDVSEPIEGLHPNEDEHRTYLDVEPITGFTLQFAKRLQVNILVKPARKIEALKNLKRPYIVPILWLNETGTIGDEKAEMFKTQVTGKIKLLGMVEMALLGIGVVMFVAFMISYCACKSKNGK
Procedure for human CD36 (His-tagged): The binding affinity of the reported antibodies for human CD36 was also measured by surface plasmon resonance (SPR) using a Biacore T200. […] For each single-cycle experiment, human CD36 (His-tagged) was captured at low density (approximately 40 RU) and a titration of five antibody concentrations (diluted in running buffer) were injected over the captured antigen and then the dissociation of the complex was measured. A double referencing method was employed in which data from the reference surfaces where no antigen was captured (fc 1) were subtracted from the antigen bound capture surface (fc 2). Blank injections of buffer were run for every antibody titration cycle and then subtracted from analyte injection cycles, to correct for small changes in the capture surface density. Surface regeneration between cycles was performed by injecting Glycine pH 1.5 for 60 s. All analysis was performed at 20° C. in HBS-P running buffer (flow 30 μL/min), and the sample rack was kept at 6° C. during experimental runs. Data was fitted to a bivalent analyte model from which the kinetic and thermodynamic binding constants were derived.

B1: 37G04 (antibody, human IgG1, V domains shown)
VH: AVTLDESGGGLQTPGGALSLVCKASGFTFSDYDMLWVRQAPGKGLEFVAGINAASTYTDYGAAVKGRATISRDNGQSTVRLQVNNLRAEDTGTYYCAKSSYGGGWSDVGSIDAWGHGTEVIVSS
VL: ALTQPSSVSANPGETVKITCSGDRSYYGYGWYQQKAPGSAPVTVIYWDDKRPSDIPSRFSGSTSGSTATLTITGVQAEDEAVYFCGNMDSSYVGMFGAGTTLTVL
notes: Chimeric: chicken variable regions on human IgG1 LALA (L234A/L235A); also called 037G04
The term EC50 denotes the concentration at which the effect is half-maximal. For B1, the “IC50 of fatty acid uptake inhibition (BODIPY FL C16, HEK hCD36 cells)” value (“IC50 of fatty acid uptake inhibition” for short) in experiment [1] came out at 0.3 nM. Besides, the “IC50 of oxLDL uptake inhibition (DiI-oxLDL, SCC25 cells)” value (shortened to “IC50 of oxLDL uptake inhibition”) in [2] is 1.14 nM. Moreover, the EC50 in experiment [3] came to 0.62 nM; in experiment [4] it was 1.45 nM; in experiment [5] it was 2.29 nM; in [6], 9.91 nM; in experiment [7], 3.3 nM.

B2: 33G04 (antibody, human IgG1, V domains shown)
VH: AVTLDESGGGLQTPGGALSLVCKASGFDFSSYAMGWVRQAPGKGLEWVAGKAKDGGGTAYGSAVKGRATISRDNGQSTVRLQLSNLRAEDTGVYYCAKSAYGDWFYGSSGPYADSIDAWGHGTEVIVSS
VL: ALTQPSSVSASPGETVKITCSGSSDSWYGWYQQKSPGSALVTVIYDSTNRPSSIPSRFSGSTSGSTGTLTITGVRADDEAVYFCGSFDSSTDSTAFGAGTTLTVL
notes: Chimeric: chicken variable regions on human IgG1 LALA (L234A/L235A); also called 033G04
On to B2, for which the “IC50 of fatty acid uptake inhibition” value in experiment [1] stood at 0.1 nM. In addition, in experiment [2], the “IC50 of oxLDL uptake inhibition” value was found to be 0.28 nM. In addition, the EC50 was determined as 0.31 nM in [3]; 0.52 nM in experiment [4]; 4.33 nM in experiment [5]; 1.58 nM in experiment [6]; 3.68 nM in [7].

B3: 34G04 (antibody, human IgG1, V domains shown)
VH: B2 VH
VL: ALTQPSSVSANPGETVKITCSGGDNYAGSYYYGWYQQKSPGSAPVTVIYDDTNRPADIPSRFSGSTSGSTNTLTITGVRAEDEAVYFCGGWDSINDRNIFGAGTTLTVL
notes: Chimeric: chicken variable regions on human IgG1 LALA (L234A/L235A); also called 034G04
For the molecule B3, in experiment [1], the “IC50 of fatty acid uptake inhibition” value came out at 0.2 nM. Also, the “IC50 of oxLDL uptake inhibition” value in [2] is 1.06 nM. Also, the EC50 in [3] turned out to be 0.56 nM; in experiment [4], 1.4 nM; in experiment [5], 6.75 nM; in experiment [6], 2.47 nM; in experiment [7], 4.82 nM.

B4: 35G04 (antibody, human IgG1, V domains shown)
VH: AVTLDESGGGLQTPGGALSLVCKASGFTFSNYGMGWMRQAPGKGLEFVAKIYKDGGYTGYGAAVDGRATISRDDGQSTVRLQLNDLRAEDTATYFCAKAADSGYLYITDSIDAWGHGTEVIVSS
VL: ALTQPSSVSANPGETVKITCSGGSGSYGWFQQKSPGNAPVTVIYHNDQRPSDIPSRFSGSKSGSTATLTITEVQADDEAVYVCGGYDNDNDAGIFGAGTTLTVL
notes: Chimeric: chicken variable regions on human IgG1 LALA (L234A/L235A); also called 035G04
With B4, the “IC50 of fatty acid uptake inhibition” value in [1] came to 0.04 nM. Moreover, the “IC50 of oxLDL uptake inhibition” value in [2] was found to be 0.11 nM. Besides, the EC50 in experiment [3] is 0.63 nM; in experiment [4], 0.59 nM; in experiment [5] it was 2.25 nM; in experiment [6], 0.66 nM; in experiment [7], 1.35 nM.

B5: 36G04 (antibody, human IgG1, V domains shown)
VH: AVTLDESGGGLQTPGGALSLVCKASGFIFSSYGMGWVRQAPGKGLEYIAAISNDGSKADYGAAVKGRATISRDNGQSTVRLQLNNLRAEDTATYYCAKSADTGYCSWSACIADSIDAWGHGTEVIVSS
VL: ALTQPSSVSAIPGETVKITCSGGGSDYGWYQQKSPGSAPVTVIYWSDNRPSNIPSRFSGSESGSTATLTITGVRAEDEAVYFCGGYDSSGSGMFGAGTTLTVL
notes: Chimeric: chicken variable regions on human IgG1 LALA (L234A/L235A); also called 036G04
Regarding B5, the “IC50 of fatty acid uptake inhibition” value in experiment [1] was determined as 0.81 nM. Also, the “IC50 of oxLDL uptake inhibition” value in experiment [2] came to 0.09 nM. The EC50 in [3] was determined as 0.33 nM; in experiment [4], 0.29 nM; in experiment [5], 0.66 nM; in experiment [6], 0.57 nM; in [7], 1.04 nM.

B6: 19G04 (antibody, human IgG1, V domains shown)
VH: EVQLQQSGPELVKPGASVKISCETSGHTFTEYTMHWVKQSHGKSLEWIGGIYPNNGATKYNQKFKGKATLTVDKSSSTAYMELRSLTSEDSAVYYCARDRYDVWFAYWGQGTLVTVSA
VL: ETTVTQSPASLSMAIGEKVTIRCITSTDIDDDMNWYQQKPGEPPKLLISEGNTLRPGVPSRFSSSGYGTDFIFTIENMLSEDVADYYCLQSDNLPLTFGAGTKLELK
notes: Chimeric: mouse variable regions on human IgG1 LALA (L234A/L235A); also called 019G04
B6: the “Percent Fatty Acid Uptake Inhibition” value in experiment [8] was 53.3%. In addition, the “IC50 of fatty acid uptake inhibition” value in experiment [1] is 0.05 nM. Besides, the EC50 in [9] turned out to be 0.75 nM; in [3] it was 1.92 nM; in experiment [4], 5.45 nM; in experiment [5], 22.5 nM; in experiment [7], 5.23 nM.

B7: 30G04 (antibody, human IgG1, V domains shown)
VH: EVQLVESGGGVVQPGESLKLSCESNEYEFPSHDMSWVRKTPERRLELVAAINSDGAITYYPDTMERRFIISRDNTKKTLYLQMSSLKSEDTAMYYCARHGQTGTWFAYWGQGTLVTVSA
VL: B6 VL with I72V
notes: Chimeric: mouse variable regions on human IgG1 LALA (L234A/L235A); also called 030G04
On to B7, for which the “Percent Fatty Acid Uptake Inhibition” value in experiment [8] is 43.5%. For the same molecule, in experiment [1], the “IC50 of fatty acid uptake inhibition” value was found to be 0.8 nM. Further, the EC50 in experiment [9] was 0.22 nM; in [3] it was 0.32 nM; in [4] it was 1.63 nM; in experiment [5], 0.96 nM; in [7] it was 0.65 nM.

B8: 11G04 (antibody, human IgG1, V domains shown)
VH: EVQLQQSGAELVRPGASVTLSCKASGYRFSDYEMQWVKQTPVHGLEWIGGIDPETGGIAYNQKFKVKATLTADKSSSTAFMELRSLTSEDSAVYYCTRKLDFDYWGQGTTLTVSS
VL: B6 VL with M13V, I15T, I72V
notes: Chimeric: mouse variable regions on human IgG1 LALA (L234A/L235A); also called 011G04
A word on the koff: it is a measure of how fast the partners let go of each other. For orientation: kon means a measure of how fast the partners come together. In the case of B8, the “Percent Fatty Acid Uptake Inhibition” value in experiment [8] came to 41.6%. In addition, in experiment [1], the “IC50 of fatty acid uptake inhibition” value was determined as 0.07 nM. The “IC50 of oxLDL uptake inhibition” value in [2] came to 1.17 nM. In addition, the EC50 in experiment [9] amounted to 0.46 nM; in [3], 0.45 nM; in experiment [4], 8.93 nM; in experiment [5] it was 11.2 nM; in experiment [10] it was 0.49 nM. This molecule gave a Kd in the experiment with human CD36 (His-tagged) of 19 nM. Moreover, in the experiment with human CD36 (His-tagged), the koff was determined as 0.022 s⁻¹. In the experiment with human CD36 (His-tagged), this molecule had a kon of 1.2e+06 M⁻¹ s⁻¹.

B9: 78G06 (antibody, human IgG1, kappa)
heavy: QVQLVQSGAEVKKPGSSVKVSCKASGYRFSDYEMQWVRQAPGQGLEWMGGIDPETGGIAYAQKFQGRVTLTADKSTSTAYMELSSLRSEDTAVYYCTRKLDFDYWGQGTLVTVSSASTKGPSVFPLAPSSKSTSGGTAALGCLVKDYFPEPVTVSWNSGALTSGVHTFPAVLQSSGLYSLSSVVTVPSSSLGTQTYICNVNHKPSNTKVDKKVEPKSCDKTHTCPPCPAPESTRGPSVFLFPPKPKDTLYITREPEVTCVVVDVSHEDPEVKFNWYVDGVEVHNAKTKPREEQYNSTYRVVSVLTVLHQDWLNGKEYKCKVSNKALPAPIEKTISKAKGQPREPQVYTLPPSRDELTKNQVSLTCLVKGFYPSDIAVEWESNGQPENNYKTTPPVLDSDGSFFLYSKLTVDKSRWQQGNVFSCSVMHEALHNHYTQKSLSLSPGK
light: ETTVTQSPAFMSATTGDKVTISCITSTDIDDDMNWYQQKPGEPPKLLISEGSTLRPGVPSRFSSSGYGTDFTFTINNIESEDAAYYYCLQSDNLPLTFGQGTKLEIKRTVAAPSVFIFPPSDEQLKSGTASVVCLLNNFYPREAKVQWKVDNALQSGNSQESVTEQDSKDSTYSLSSTLTLSKADYEKHKVYACEVTHQGLSSPVTKSFNRGEC
notes: Humanized 11G04, human IgG1 STR
In turn, B9 yielded an EC50 in [10] of 1.15 nM.

B10: 80G06 (antibody, human IgG1, kappa)
heavy: B9 heavy
light: B9 light with T15P
notes: as for B9
As for B10, in [10], a half-maximal response (EC50) required 0.65 nM.

B11: 79G06 (antibody, human IgG1, kappa)
heavy: B9 heavy with Q1E
light: B9 light with T15P
notes: as for B9
Regarding B11, the EC50 in experiment [10] was 0.65 nM.

B12: 38G04 (antibody, human IgG1, V domains shown)
VH: AVTLDESGGGLQTPGRALSLVCKASGFTFSSYNMFWVRQAPGKGLEWVAGIDDDGSFTLYGAAVKGRATISRDNGQSTVRLQLNNLRAEDTGTYYCARDSGAVSIDAWGHGTEVIVSS
VL: ALTQPSSVSANPGETVKITCSGGDSDYGWYQQKSPGSAPVTVIYQNDKRPSDIPSRFSGSASGSTATFTITGVQAEDEAVYYCGGWDGSYDGAVFGAGTTLTVL
notes: Chimeric: chicken variable regions on human IgG1 LALA (L234A/L235A); also called 038G04
For the molecule B12, the “IC50 of fatty acid uptake inhibition” value in [1] stood at 0.18 nM. The “IC50 of oxLDL uptake inhibition” value in [2] turned out to be 0.35 nM. The EC50 in [3] worked out at 0.35 nM; in experiment [4] it was 0.33 nM; in [5], 0.69 nM; in experiment [6] it was 1.45 nM; in experiment [7], 1.05 nM.

The values are drawn from patent US20250206836A1 (ONA THERAPEUTICS S L, published 2025).
